Numbering of substitutions follows the chain as printed. Where “and” joins values, the source holds several entries; their conditions need not be identical. Identical values can stand only once. Values belong to the molecule of their own block, whether it stands above or below them.
How the values were obtained:
[1] = molecular target: T1, human CD14 antigen (B294801, histidine tagged) (Homo sapiens, UniProt P08571); assay: Biacore 8K kinetic and affinity test of antibodies without PTM sites (Example 9); format: binding; conditions: for Koff / kon (1:1 binding): Biacore 8K, analyte B294801 0.1953125-25 nM, capture conc. 1 μg/mL
T1 construct: His; purchased Shanghai BaiYing Biotechnology Co., Ltd B294801 (Batch number 20200518A22)
T1 sequence (P08571 20-345): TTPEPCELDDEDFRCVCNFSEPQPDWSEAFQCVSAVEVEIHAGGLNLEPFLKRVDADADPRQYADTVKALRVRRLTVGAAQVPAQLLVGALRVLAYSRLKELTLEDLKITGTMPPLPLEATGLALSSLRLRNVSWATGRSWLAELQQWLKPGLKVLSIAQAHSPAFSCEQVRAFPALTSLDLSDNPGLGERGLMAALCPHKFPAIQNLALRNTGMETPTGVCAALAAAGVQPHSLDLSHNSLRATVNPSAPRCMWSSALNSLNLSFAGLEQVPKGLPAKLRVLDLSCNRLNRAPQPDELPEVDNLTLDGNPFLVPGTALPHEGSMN
Protocol: Experimental reagents and consumables included cell culture fluid, electroporation buffer, CHO cells, 1 mL electroporation cuvette, Protein A chip (Cytiva, 29127556), various sizes of shake flasks, and various sizes of pipettes. Main instruments and equipment included a shaker (Taicang Huamei), centrifuge (Baiyang), ultrapure water system (Millipore), constant temperature incubator (BLUE PARD), electroporator, water bath, Biacore 8K (Cytiva), and ELISA system (Molecular Devices).
The antigen used for the binding affinity measurements is B294801. This antigen is a human CD14 antigen that is histidine tagged. D6DD3D001 is a mouse antibody, and MPDDAD001-MPDDAD005 are humanized antibodies. The antibodies are recombinant, human (hFc Tag). Selected parameters of the experimental samples are shown in Table 9-1, with MW referring to molecular weight in kDa.
The Biacore 8K platform was used to test the kinetic and affinity properties of the antibody, operating according to system instructions and indications.
Results of Affinity Detection. The affinity of the six antibodies was measured at saturation concentration. For the experiments, the analyte solution comprises the B294801 antigen with an analyte concentration of 0.1953125 nM, 0.390625 nM, 0.78125 nM, 1.5625 nM, 3.125 nM, 6.25 nM, 12.5 nM, and 25 nM. Change factor is described above.

[2] = system: CD14 positive recurrent bladder cancer patient-derived xenograft (PDX); assay: Anti-CD14 IgG1/IgG4 with or without cisplatin, tumor treatment in PDX mice (tumor length, width, volume, tumor weight; Example 6); format: in vivo; conditions: for Tumor Length / Tumor Volume / Tumor Width: IgG4 5 mg/kg i.v. (Ex. 2), PDX mice 1-6
Text: After removing the primary tumor tissue from the patient, the tissue was temporarily placed in a complete culture medium containing RPMI1640 (Gibco Roswell Park Memorial Institute 1640 Media)+PS (penicillin and streptomycin)+10% FBS (Fetal bovine serum). The tissue was then transported to a sterile operating room within an SPF-grade (Specific Pathogen Free) animal facility. The tumor tissue was cut to an appropriate size (5 millimeters (mm) in diameter). Severely immunodeficient NSG (NOD scid gamma mouse) mice were anesthetized using an isoflurane respirator. The tumor was transplanted subcutaneously into the right rib area through surgery. When the tumor volume reached 1 cm^3, it was passaged following the same procedure, and after expanding for three generations, the tumor became stable for use in formal experiments. During the experiment, passaging and expansion were performed as needed. When the tumor volume reached 100 mm^3, the mice were divided into groups according to the experimental requirements and treated with drugs.
The IgG4 tested is the original version of Atibuclimab.
Drug administration on the PDX mice was performed intravenously.

B1: MPDDAD003: D6DD3D014-derived antibody with PTM site removed; VL amino acid nos. 34, 35: TS (antibody, V domains shown)
VH: QLQLQESGPGLVKPSETLSLTCTVSGGSISSDSAWNWIRQPPGKGLEWIGYISYSGSTSYNPSLKSRVTISRDTSKNQFSLKLSSVTAADTAVYYCVRGLRFAYWGQGTLVTVSS
VL: DIQLTQSPSSLSASVGDRVTITCRASESVDSYVTSFLHWYQQKPGKAPKLLIYRASNLQSGVPSRFSGSGSRTDFTLTISSLQPEDVATYYCQQSNEDPYTFGQGTKLEIK
Koff [1]: 0.0026 s⁻¹
kon (1:1 binding) [1]: 1.29e+06 M⁻¹ s⁻¹
affinity compared with the humanized antibody D6DD3D014 ([1]; Biacore, B294801 antigen): approximately equivalent to the affinity of the humanized antibody D6DD3D014
affinity compared with the murine antibody D6DD3D001 ([1]; Biacore, B294801 antigen): within three times less than the affinity of the murine antibody D6DD3D001

B2: MPDDAD002: D6DD3D014-derived antibody with PTM site removed; VL amino acid nos. 34, 35: SS (antibody, V domains shown)
VH: B1 VH
VL: B1 VL with T34S
Koff [1]: 0.00362 s⁻¹
kon (1:1 binding) [1]: 1.29e+06 M⁻¹ s⁻¹

B3: MPDDAD001: D6DD3D014-derived antibody with PTM site removed; VL amino acid nos. 34, 35: DS (antibody, V domains shown)
VH: B1 VH
VL: B1 VL with T34D
Koff [1]: 0.00633 s⁻¹
kon (1:1 binding) [1]: 847000 M⁻¹ s⁻¹

B6: IgG4: The IgG4 tested is the original version of Atibuclimab (anti-CD14 antibody) (antibody, V domains shown)
VH: DVQLQQSGPGLVKPSQSLSLTCTVTGYSITSDSAWNWIRQFPGNRLEWMGYISYSGSTSYNPSLKSRISITRDTSKNQFFLQLNSVTTEDTATYYCVRGLRFAYWGQGTLVTVSS
VL: DIVLTQSPASLAVSLGQRATISCRASESVDSYVNSFLHWYQQKPGQPPKLLIYRASNLQSGIPARFSGSGSRTDFTLTINPVEADDVATYYCQQSNEDPYTFGGGTKLEIK
modifications: IgG4 constant regions
Tumor Length ([2]; Day 0, 5 mg/kg): 6.27 mm and 8.76 mm and 6.59 mm and 7.42 mm and 6.33 mm and 6.02 mm
Tumor Volume ([2]; Day 0, 5 mg/kg): 71.87 mm^3 and 99.55 mm^3 and 90.05 mm^3 and 93.23 mm^3 and 102.04 mm^3 and 77.19 mm^3
Tumor Width ([2]; Day 0, 5 mg/kg): 4.68 mm and 4.66 mm and 5.11 mm and 4.9 mm and 5.55 mm and 4.95 mm
Tumor Length ([2]; Day 4, 5 mg/kg): 6.09 mm and 6.4 mm and 7.29 mm and 6.97 mm and 6.34 mm and 6.38 mm
Tumor Volume ([2]; Day 4, 5 mg/kg): 113.97 mm^3 and 113.45 mm^3 and 97.29 mm^3 and 124.83 mm^3 and 104.42 mm^3 and 77.89 mm^3
Tumor Width ([2]; Day 4, 5 mg/kg): 5.98 mm and 5.82 mm and 5.05 mm and 5.85 mm and 5.61 mm and 4.83 mm
Tumor Length ([2]; Day 7, 5 mg/kg): 7.28 mm and 7.86 mm and 8.67 mm and 6.99 mm and 8.27 mm
Tumor Volume ([2]; Day 7, 5 mg/kg): 180.86 mm^3 and 117.78 mm^3 and 198.12 mm^3 and 140.77 mm^3 and 173.66 mm^3 and 136.21 mm^3
Tumor Width ([2]; Day 7, 5 mg/kg): 6.89 mm and 5.56 mm and 6.94 mm and 5.57 mm and 5.61 mm
Tumor Length ([2]; Day 11, 5 mg/kg): 8.11 mm and 8.29 mm and 6.98 mm and 8.22 mm and 7.53 mm and 8.23 mm
Tumor Width ([2]; Day 11, 5 mg/kg): 5.81 mm and 7.35 mm and 5.72 mm and 8.04 mm and 7.15 mm and 7.08 mm
Tumor Length ([2]; Day 14, 5 mg/kg): 8.23 mm and 8.98 mm and 8.47 mm and 7.26 mm and 9.3 mm and 9.49 mm
Tumor Volume ([2]; Day 14, 5 mg/kg): 222.04 mm^3 and 307.58 mm^3 and 251.33 mm^3 and 190.45 mm^3 and 320.90 mm^3 and 371.60 mm^3
Tumor Width ([2]; Day 14, 5 mg/kg): 7.18 mm and 8.09 mm and 7.53 mm and 7.08 mm and 8.12 mm and 8.65 mm
Tumor Length ([2]; Day 18, 5 mg/kg): 8.68 mm and 10.39 mm and 9.13 mm and 9.05 mm and 9.45 mm and 9.95 mm
Tumor Volume ([2]; Day 18, 5 mg/kg): 324.35 mm^3 and 536.16 mm^3 and 383.59 mm^3 and 344.61 mm^3 and 334.97 mm^3 and 363.06 mm^3
Tumor Width ([2]; Day 18, 5 mg/kg): 8.45 mm and 9.93 mm and 8.96 mm and 8.53 mm and 8.23 mm and 8.35 mm
Tumor Length ([2]; Day 21, 5 mg/kg): 10.54 mm and 10.95 mm and 9.73 mm and 10.89 mm and 10.09 mm and 10.17 mm
Tumor Volume ([2]; Day 21, 5 mg/kg): 450.77 mm^3 and 632.99 mm^3 and 424.46 mm^3 and 505.72 mm^3 and 463.61 mm^3 and 487.44 mm^3
Tumor Width ([2]; Day 21, 5 mg/kg): 9.04 mm and 10.51 mm and 9.13 mm and 9.42 mm and 9.37 mm and 9.57 mm
Tumor Length ([2]; Day 25, 5 mg/kg): 12.37 mm and 11.71 mm and 10.99 mm and 12.36 mm and 12.63 mm
Tumor Volume ([2]; Day 25, 5 mg/kg): 724.64 mm^3 and 746.92 mm^3 and 567.12 mm^3 and 525.64 mm^3 and 639.10 mm^3 and 698.50 mm^3
Tumor Width ([2]; Day 25, 5 mg/kg): 10.58 mm and 11.04 mm and 9.93 mm and 9.56 mm and 9.94 mm and 10.28 mm
Tumor Length ([2]; Day 28, 5 mg/kg): 11.25 mm and 11.92 mm and 12.46 mm and 12.52 mm and 12.24 mm and 12.94 mm
Tumor Volume ([2]; Day 28, 5 mg/kg): 728.02 mm^3 and 719.55 mm^3 and 840.02 mm^3 and 932.53 mm^3 and 835.40 mm^3 and 919.10 mm^3
Tumor Width ([2]; Day 28, 5 mg/kg): 11.12 mm and 10.74 mm and 11.35 mm and 11.93 mm and 11.42 mm and 11.65 mm
Tumor weight after 28 days ([2]; IgG4 (5 mg/kg), Ex. 2, per mouse 1-6, 5 mg/kg): 0.779 grams and 0.769 grams and 0.739 grams and 0.863 grams and 0.852 grams and 0.649 grams
tumor suppression rate ([2]; single anti-CD14-IgG4 5 mg/kg (Ex. 2), after 28 days): about 25%

Second part, the molecule after the results:

Koff [1]: 0.00544 s⁻¹
kon (1:1 binding) [1]: 1.11e+06 M⁻¹ s⁻¹
B4: MPDDAD005: D6DD3D014-derived antibody with PTM site removed; VL amino acid nos. 34, 35: QS (antibody, V domains shown)
VH: B1 VH
VL: B1 VL with T34Q

Koff [1]: 0.0046 s⁻¹
kon (1:1 binding) [1]: 775000 M⁻¹ s⁻¹
B5: MPDDAD004: D6DD3D014-derived antibody with PTM site removed; VL amino acid nos. 34, 35: NA (antibody, V domains shown)
VH: B1 VH
VL: B1 VL with T34N, S35A
